Experimental data as given in patent US20060228334A1.

molecular target: coxsackievirus-adenovirus receptor (CAR) on 293 cells (human) (UniProt P78310); experiment: cell-based or functional assay
Sequence of UniProt P78310 (P78310 20-365): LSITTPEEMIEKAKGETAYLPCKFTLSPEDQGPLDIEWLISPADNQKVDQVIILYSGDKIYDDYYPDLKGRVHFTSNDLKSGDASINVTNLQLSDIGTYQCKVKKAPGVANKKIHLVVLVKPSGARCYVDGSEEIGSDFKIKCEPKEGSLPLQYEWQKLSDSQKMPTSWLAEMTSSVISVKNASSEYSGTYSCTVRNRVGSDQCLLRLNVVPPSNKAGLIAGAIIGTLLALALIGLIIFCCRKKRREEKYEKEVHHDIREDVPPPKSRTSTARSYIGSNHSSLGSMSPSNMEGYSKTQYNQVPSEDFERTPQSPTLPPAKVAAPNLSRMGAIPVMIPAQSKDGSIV

Substance | IU/Particle (infectious units titrated on 293 cells per particle) [IU/Particle] | inhibition of infection of 293 cells by 10 ug/ml recombinant Ad5 knob (FIG. 2) [%]
Ad5 fiber Val452Lys (virus Ad-LacZ/Fb-Val452Lys) (from UniProt P11818 1-581) | 0.002 | 
Ad5 fiber Lys506Gln/His508Lys (virus Ad-LacZ/Fb-Lys506Q/His508Lys) (from UniProt P11818 1-581) | 0.000769 | 
Ad5 fiber Ser408Glu and Lys506Gln/His508Lys (virus Ad-LacZ/Fb-S408E/K506Q/H508K) (from UniProt P11818 1-581) | 0.00025 | 
Ad5 fiber Thr404Gly (virus Ad-LacZ/Fb-Thr404gly) (from UniProt P11818 1-581) | 8.33e-05 | 
Ad5 fiber Ser408Glu (virus Ad-LacZ/Fb-S408E) (from UniProt P11818 1-581) | 9.54e-05 | 
Ad5 fiber Ser555Lys (virus Ad-LacZ/Fb-Ser555Lys) (from UniProt P11818 1-581) | 0.025 | 
Ad5 fiber Ser408Glu and Val452Lys (virus Ad-LacZ/Fb-S408E/V452K) (from UniProt P11818 1-581) | 9.57e-05 | 
Ad5 fiber Ser408Glu and Ser555Lys (virus Ad-LacZ/Fb-S408E/S555K) (from UniProt P11818 1-581) | 6.38e-05 | 
Ad5 fiber Ala406Lys (virus Ad-LacZ/Fb-Ala406Lys) (from UniProt P11818 1-581) | 0.000125 | 
wild-type Ad5 fiber protein (as carried by the Ad-LacZ virus) (from UniProt P11818 1-581) | 0.025 | 90
